In this test the target is wild-type Savinase (Bacillus lentus protease of SEQ ID NO: 3) (Bacillus lentus) (UniProt P41362). The test can be described thus: cell-based or functional assay.
UniProt P41362, sequence (P41362 28-380, tags left off): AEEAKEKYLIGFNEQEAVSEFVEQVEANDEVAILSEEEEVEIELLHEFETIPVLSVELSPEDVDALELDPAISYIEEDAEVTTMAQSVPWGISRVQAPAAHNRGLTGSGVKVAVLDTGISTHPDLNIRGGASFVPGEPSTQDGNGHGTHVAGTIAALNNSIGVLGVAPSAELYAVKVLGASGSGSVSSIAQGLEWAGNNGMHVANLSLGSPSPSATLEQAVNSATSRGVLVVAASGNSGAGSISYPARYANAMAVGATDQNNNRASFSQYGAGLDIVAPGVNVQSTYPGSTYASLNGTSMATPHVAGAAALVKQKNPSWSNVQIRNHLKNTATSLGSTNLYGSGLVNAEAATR

In the case of “ovoinhibitor isolated from hen egg white (from UniProt P10184 69-517)”, the amount of released amplicon A (qPCR of DNA released from alpha-casein-coated microspheres by the expressed protease), compared to the amount released in the absence of ovoinhibitor amounted to 68%.

(Values after patent publication US20190161786A1.)
